No end group written: not given here.
Assays:
[1] = target: T1, recombinant human NME7-AB (human, UniProt Q9Y5B8 92-376); test: sandwich ELISA, PSMGFR-Cys-BSA on the plate, second tagged PSMGFR in solution (FIG. 1)
T1 construct: Monomer with A and B domains; also called NME-AB
T1 sequence: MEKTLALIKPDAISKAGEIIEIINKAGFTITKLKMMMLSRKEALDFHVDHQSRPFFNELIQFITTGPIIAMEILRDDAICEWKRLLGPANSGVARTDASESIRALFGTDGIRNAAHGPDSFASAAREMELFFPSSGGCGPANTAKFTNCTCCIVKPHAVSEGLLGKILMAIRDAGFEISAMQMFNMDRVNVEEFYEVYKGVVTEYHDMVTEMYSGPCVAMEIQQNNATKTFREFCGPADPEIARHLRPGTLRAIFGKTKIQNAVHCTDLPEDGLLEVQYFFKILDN
Experimental: The PSMGFR peptide bearing a C-terminal Cysteine (PSMGFR-Cys) was covalently coupled to BSA using Imject Maleimide activated BSA kit (Thermo Fisher). PSMGFR-Cys coupled BSA was diluted to 10 ug/mL in 0.1M carbonate/bicarbonate buffer pH 9.6 and 50 uL was added to each well of a 96 well plate. After overnight incubation at 4° C., the plate was washed twice with PBS-T and a 3% BSA solution was added to block remaining binding site on the well. After 1 h at RT the plate was washed twice with PBS-T and NME7, diluted in PBS-T+1% BSA, was added at different concentrations. After 1 h at RT the plate was washed 3× with PBS-T and anti-NM23-H7 (B-9, Santa Cruz Biotechnology), diluted in PBS-T+1% BSA, was added at 1/500 dilution. […] After 1 h at RT the plate was washed 3× with PBS-T and binding of NME7 was measured at 415 nm using ABTS solution (Pierce). […]
After 1 h at RT the plate was washed 3× with PBS-T and His-Tagged PSMGFR peptide (PSMGFR-His) or biotinylated PSMGFR peptide (PSMGFR-biotin), diluted in PBS-T+1% BSA, was added at different concentration. […] After 1 h at RT the plate was washed 3× with PBS-T and binding of PSMGFR peptide to NME7 already bound to another PSMGFR peptide (which could not signal by anti-His antibody or by streptavidin) coupled BSA was measured at 415 nm using a ABTS solution (Pierce).

[2] = target: T1, recombinant human NME7-AB; test: ELISA, plate coated with recombinant NME7-AB (FIG. 24)

B1: PSMGFR peptide (MUC1* extra cellular domain peptide) (peptide)
peptide: GTINVHDVETQFNQYKTEAASRYNLTISDVSVSDVPFPFSAQSGA
modifications: also: also used with C-terminal Cys coupled to BSA, or His-tagged or biotinylated
notes: also called MUC1* peptide; FLR
binding result [1]: binds

B2: anti-NME7AB monoclonal antibody 5F3A5D4 (antibody, V domains shown)
VH: VQLQQSGPDLVKPGTSVKISCKTSGNTFTEYTMHWVKQSHGKSLEWIGGFNPNNGVTNYNQKFKGKATLTVDKSSSTAYMELRSLTSEDSAVYYCARRYYHSTYVFYFDSWGQGTTLTVSS
VL: DIQMTQTTSSLSASLGDRVTISCSASQGISNYLNWFQQKPDGTIKLLIYYTSSLHSGVPSRFSGSGSGTDYSLTISNVEPEDIATYYCQQYSKLPYTFGGGTKLEIKR
notes: Mouse monoclonal
binding result [2]: binds

B3: anti-NME7AB monoclonal antibody 8F9A5A1 (antibody, V domains shown)
VH: IQLVQSGPELKKPGETVKISCKASGYTFTNYGMNWVKQAPGKGLKWMGWINTYTGEPTYVDDFKGRFAFSLETSATTAYLQINNLKNEDTSTYFCARLRGIRPGPLAYWGQGTLVTVSA
VL: EILLTQSPAIIAASPGEKVTITCSASSSVSYMNWYQQKPGSSPKIWIYGISNLASGVPARFSGSGSGTSFSFTINSMEAEDVATYYCQQRSSYPPTFGGGTKLEIKR
notes: Mouse monoclonal
binding result [2]: binds

Reference: US20230279141A1 (MINERVA BIOTECHNOLOGIES, published 2023)
